Laboratory results as given in patent publication US20230295301A1 (SHANGHAI JUNSHI BIOSCIENCES, published 2023).

How the values were obtained:
[1] = biological target: T1, HXT huCTLA4 his (non-mutated) (human, UniProt P16410 37-162); assay: ELISA: antigen coated at 1.0 µg/mL, huJS007-47 2.5-fold dilutions from 1000 to 0.042 ng/mL, HRP goat anti-human IgG (Fc), OD 450-620 nm; unit from the axis 'Log:ng/mL'
T1 construct: not shown: his-tag
T1 sequence: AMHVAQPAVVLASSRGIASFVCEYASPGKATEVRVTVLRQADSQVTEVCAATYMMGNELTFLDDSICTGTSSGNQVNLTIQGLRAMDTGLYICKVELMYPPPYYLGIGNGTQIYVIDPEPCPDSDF
Method: (§1) The huCTLA-4 mutants used in the ELISA assays included non-mutated HXT huCTLA4 his, and mutated huCTLA4 N-his P27A, huCTLA4 N-his G28A, huCTLA4 N-his K29A and huCTLA4 N-his T31A. HuCTLA-4 his and its mutants were diluted with PBS (Hyclone) to 1.0 μg/mL, and a plate was coated with the dilution, incubated in an incubator at 37° C. for 90 min, washed and then blocked with 2% BSA. After the plate was washed, the monoclonal antibody huJS007-47 (serially diluted 2.5-fold with 2% BSA from 1000 ng/mL to 0.042 ng/mL) was added. The plate was incubated at 37° C. for 60 min and washed. A 1:5000 diluted HRP-conjugated goat anti-human antibody IgG (Fc specific) (Sigma, Catalog No. A0170) was used for detection. The plate was incubated at 37° C. for 60 min and then incubated with HRP substrate TMB (Sigma, Catalog No. T2885) at 37° C. for 15 min for color development. Finally, 2 M of hydrochloric acid was added to terminate the color development; during the addition, bubbles were avoided. Reading (wavelength: 450/620 nm) was done within 10 min using a microplate reader.

[2] = biological target: hCTLA4 Nhis T31A; assay: as above
Method: as §1

[3] = biological target: T2, huCTLA4 N-his P27A (human, UniProt P16410 37-162); assay: as above
T2 construct: … changed to …; not shown: N-terminal his-tag
Method: as §1

[4] = biological target: T3, huCTLA4 N-his K29A (human, UniProt P16410 37-162); assay: as above
T3 construct: … changed to …; not shown: N-terminal his-tag
Method: as §1

[5] = biological target: T4, huCTLA4 N-his G28A (human, UniProt P16410 37-162); assay: ELISA: huCTLA4 N-his G28A coated at 1.0 µg/mL, huJS007-47 2.5-fold dilutions from 1000 to 0.042 ng/mL, HRP goat anti-human IgG (Fc), OD 450-620 nm
T4 construct: … changed to …; not shown: N-terminal his-tag
Method: as §1

B1: huJS007-47 (antibody, human IgG1, kappa, V domains shown)
VH: QVQLQESGPGLVKPSQTLSLTCTVSAYSITSGYYWNWIRQHPGKGLEWIGYIGYDGSNNYNPSLKSRVTISRDTSKNQFSLKLSSVTAADTAVYYCARDYYSGYFDSWGQGTTLTVSS
VL: DIQMTQSPSSLSASVGDRVTITCRASQNVGTYVAWYQQKPGKVPKPLIYSTSYRYSGVPSRFSGSGSGTDFTLTISSLQPEDVATYFCHQYDTYPLTFGAGTKLELKR
notes: also called JS007 antibody; monoclonal antibody huJS007-47
B1 was tested. Which EC50 [1] did it give?
The EC50 was 0.0136 µg/mL.

What about the EC50 [2] of the same binder?
Its EC50 is 0.0136 µg/mL.

What about the EC50 [3] of the same binder?
Its EC50 is 0.0333 µg/mL.

And the EC50 [4]?
The EC50 was 0.0467 µg/mL.

Does B1 bind [5]?
Result: no binding (tested: 1000 ng/mL (log 3))
